Assay results as given in US20190062420A1 (Janssen / Centocor, published 2019).

T1: FcγRIIA protein (human, UniProt P12318 36-217, biotinylated (SureLINK Biotin Kit) in the ELISA of Example 1)
T1 sequence: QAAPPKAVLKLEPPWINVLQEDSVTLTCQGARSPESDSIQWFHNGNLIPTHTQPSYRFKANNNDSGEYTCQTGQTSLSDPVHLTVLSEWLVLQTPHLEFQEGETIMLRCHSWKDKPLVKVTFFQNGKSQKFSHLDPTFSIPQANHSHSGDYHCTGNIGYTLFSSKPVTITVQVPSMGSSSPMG

T2: FcγRIIB protein (human, UniProt P31994 43-217, biotinylated (SureLINK Biotin Kit) in the ELISA of Example 1)
T2 sequence: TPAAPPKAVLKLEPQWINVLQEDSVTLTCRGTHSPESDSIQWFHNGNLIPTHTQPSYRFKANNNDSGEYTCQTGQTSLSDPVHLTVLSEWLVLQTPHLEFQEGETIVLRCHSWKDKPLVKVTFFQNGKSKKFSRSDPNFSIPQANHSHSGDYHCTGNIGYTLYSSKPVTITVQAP

T3: human FcγRIIB (NM_004001) expressed on cells (human, UniProt P31994 43-310)
T3 construct: Transiently expressed on Expi293F cells; also called Expi293F FcγRIIB; HEK293F cells expressing FcγRIIB
T3 sequence: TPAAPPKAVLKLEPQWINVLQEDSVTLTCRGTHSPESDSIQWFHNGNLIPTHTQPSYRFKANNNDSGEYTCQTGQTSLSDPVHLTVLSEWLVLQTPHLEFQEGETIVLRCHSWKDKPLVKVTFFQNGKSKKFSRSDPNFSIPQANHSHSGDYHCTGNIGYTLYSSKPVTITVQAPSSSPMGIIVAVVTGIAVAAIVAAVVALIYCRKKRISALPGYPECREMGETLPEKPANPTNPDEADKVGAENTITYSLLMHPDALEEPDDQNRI

T4: human FcγRIIA (NM_021642) expressed on cells (human, UniProt P12318 36-317)
T4 sequence: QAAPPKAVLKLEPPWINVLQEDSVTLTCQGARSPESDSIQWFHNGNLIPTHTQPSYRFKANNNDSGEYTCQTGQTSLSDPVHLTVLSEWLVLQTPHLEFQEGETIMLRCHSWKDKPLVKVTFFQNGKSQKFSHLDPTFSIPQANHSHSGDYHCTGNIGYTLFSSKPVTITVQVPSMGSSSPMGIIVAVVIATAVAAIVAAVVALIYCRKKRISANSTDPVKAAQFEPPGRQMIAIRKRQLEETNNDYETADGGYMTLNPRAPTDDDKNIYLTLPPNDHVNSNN

T5: human OX40 expressed on HEK-Blue: OX40 cells (human, UniProt P43489 29-277)
T5 construct: also called CD134
T5 sequence: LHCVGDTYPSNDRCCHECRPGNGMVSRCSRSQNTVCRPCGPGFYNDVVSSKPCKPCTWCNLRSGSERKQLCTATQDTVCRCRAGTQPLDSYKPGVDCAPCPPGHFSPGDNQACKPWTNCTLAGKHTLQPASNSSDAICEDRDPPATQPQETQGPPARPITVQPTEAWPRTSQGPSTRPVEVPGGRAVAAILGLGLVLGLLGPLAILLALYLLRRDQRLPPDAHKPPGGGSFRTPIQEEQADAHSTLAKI


How the values were obtained:
FcγRIIA protein = target: T1, FcγRIIA protein; assay: cell-based or functional assay
FcγRIIB protein = target: T2, FcγRIIB protein; assay: cell-based or functional assay
[1] = target: T6, human FcγRI (NM_000566) expressed on cells (human, UniProt P12314 16-374); assay: flow cytometry; Expi293F cells transfected with FcγRI
T6 construct: Transiently expressed on Expi293F cells
Experimental: Plasmids expressing cDNAs encoding human FcγRI (NM_000566) (SEQ ID NO: 44), FcγRIIA (NM_021642) (SEQ ID NO: 2), FcγRIIB (NM_004001) (SEQ ID NO: 3), and FcγRIIIA (NM_000569) (SEQ ID NO: 45) (Origene) were transiently transfected into Expi293F cells by ExpiFectamine293 transfection kit (Life Technologies). Flow cytometry assays were performed 48 h after transfection.
(§1) 2×10⁵ cells per well were seeded in 96-well plate and blocked in BSA Stain Buffer (BD Biosciences, San Jose, USA) for 30 min at 4° C. Cells were incubated with test mAbtyrin on ice for 1.5 h at 4° C. After being washed twice with BSA stain buffer, the cells were incubated with R-PE labeled anti-human or anti-mouse IgG secondary antibody (Jackson Immunoresearch Laboratories) for 45 min at 4° C. The cells were washed twice in stain buffer and then resuspended in 150 μL of Stain Buffer containing 1:200 diluted DRAQ7 live/dead stain (Cell Signaling Technology, Danvers, USA). PE and DRAQ7 signals of the stained cells were detected by Miltenyi MACSQuant flow cytometer (Miltenyi Biotec, Auburn, USA) using B2 and B4 channel respectively. Live cells were gated on DRAQ7 exclusion and the geometric mean fluorescence signals were determined for at least 10,000 live events collected. FlowJo software (Tree Star) was used for analysis. Data was plotted as the logarithm of antibody concentration versus mean fluorescence signals. Nonlinear regression analysis was performed by GraphPad Prism 6 (GraphPad Software, Inc.) and EC₅₀ values were calculated.

[2] = target: T3, human FcγRIIB (NM_004001) expressed on …; assay: flow cytometry; Raji cells (express predominantly FcγRIIB)
Experimental: as §1
Raji cell is a cell line derived from B cells that express predominantly FcγRIIB. The binding of mAbtyrins on Raji cells were investigated by flow cytometry assay described for testing mAbtyrin binding to FcγR. Binding of the mAbtyrins were detected by flow cytometry using a PE-labeled Goat F(ab′) against Human IgG(γ).

[3] = target: T3, human FcγRIIB (NM_004001) expressed on …; assay: cell-based or functional assay
[4] = target: human FcγRIIIA (NM_000569) expressed on cells (human, UniProt P08637 17-254); assay: cell-based or functional assay
[5] = target: T4, human FcγRIIA (NM_021642) expressed on …; assay: cell-based or functional assay
[6] = target: T5, human OX40 expressed on HEK-Blue: OX40 …; assay: flow cytometry; HEK-Blue: OX40 cells
Outline: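 HEK-Blue Null 1 cells stably transfected with human OX40 were blocked, then incubated with mAbtyrin for 1.5 h at 4 °C. Binding was detected with a PE anti-human IgG F(ab′)₂ secondary, gating on DRAQ7-excluding live cells and taking geometric mean fluorescence. EC50 came from nonlinear regression versus log antibody concentration.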

Sequence of human FcγRIIIA (NM_000569) expressed on cells (P08637 17-254 limits assumed): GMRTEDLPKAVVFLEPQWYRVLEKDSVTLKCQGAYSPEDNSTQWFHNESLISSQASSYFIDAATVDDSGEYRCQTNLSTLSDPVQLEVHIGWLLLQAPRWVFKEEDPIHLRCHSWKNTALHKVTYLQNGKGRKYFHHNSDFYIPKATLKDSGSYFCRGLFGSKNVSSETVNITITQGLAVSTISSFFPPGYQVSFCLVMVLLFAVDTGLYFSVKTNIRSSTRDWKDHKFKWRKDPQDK
T6 sequence (P12314 16-374 limits assumed): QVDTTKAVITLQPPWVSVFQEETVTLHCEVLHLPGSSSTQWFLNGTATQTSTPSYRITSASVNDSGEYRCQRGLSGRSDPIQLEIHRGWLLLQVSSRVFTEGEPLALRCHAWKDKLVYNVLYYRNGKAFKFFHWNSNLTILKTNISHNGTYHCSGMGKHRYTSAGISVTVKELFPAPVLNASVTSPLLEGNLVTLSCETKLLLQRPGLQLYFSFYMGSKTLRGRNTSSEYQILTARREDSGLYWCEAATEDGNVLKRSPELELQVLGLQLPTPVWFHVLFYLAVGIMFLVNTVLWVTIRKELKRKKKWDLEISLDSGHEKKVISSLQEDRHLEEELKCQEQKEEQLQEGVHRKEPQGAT

Row | IFNγ production by activated CD4 T cells, plate-coated FcγRIIA (FcγRIIA protein) [pg/mL] | TNFα production by activated CD4 T cells, plate-coated FcγRIIA (FcγRIIA protein) [pg/mL] | IFNγ production by activated CD4 T cells, plate-coated FcγRIIb (FcγRIIB protein) [pg/mL] | TNFα production by activated CD4 T cells, plate-coated FcγRIIb (FcγRIIB protein) [pg/mL] | EC50 [1] [µg/mL] | EC50 [2] [µg/mL] | % activity at 1 µg/ml with Raji cells (HEK-Blue: OX40 NF-κB reporter) [3] [%] | ADCC (fold activation) at 1 µg/ml [4] [fold] | ADCP EC50 [5] [ng/mL] | Binding to HEK-Blue: OX40 cells (mean signal at 1 µg/ml) [6] [mean fluorescence signal] | EC50 [6] [µg/mL] | Binder
1 | 1550 | 226 | 1330 | 250 | > 10 | 1.44 | 93 | 1 | 37.5 | 9180 | 0.548 | OX40SF2IgG2sigma_R2BS29_HC-C (bispecific antibody, mAbtyrin: anti-OX40 antibody OX40SF2, effector silent IgG2sigma, with linker and R2BS29 FN3 domain at the C-terminus of the heavy chain; also called mAbtyrin) heavy: QVQLVQSGAEVKKPGSSVKVSCKASGYTFKDYTMHWVRQAPGQGLEWIGGIYPNNGGSTYNQNFKDRVTLTADKSTSTAYMELSSLRSEDTAVYYCARMGYHGPHLDFDVWGQGTTVTVSSASTKGPSVFPLAPCSRSTSESTAALGCLVKDYFPEPVTVSWNSGALTSGVHTFPAVLQSSGLYSLSSVVTVPSSNFGTQTYTCNVDHKPSNTKVDKTVERKCCVECPPCPAPPAAASSVFLFPPKPKDTLMISRTPEVTCVVVDVSAEDPEVQFNWYVDGVEVHNAKTKPREEQFNSTFRVVSVLTVLHQDWLNGKEYKCKVSNKGLPSSIEKTISKTKGQPREPQVYTLPPSREEMTKNQVSLTCLVKGFYPSDIAVEWESNGQPENNYKTTPPMLDSDGSFFLYSKLTVDKSRWQQGNVFSCSVMHEALHNHYTQKSLSLSPGKGGGGGSGGGGSGGGGSGGGGSLPAPKNLVVSRVTEDSARLSWTAPDAAFDSFPIYYWEYRVGGEAIVLTVPGSERSYDLTGLKPGTEYFVYINGVKGGEESRPLSAIFTT light: DIQMTQSPSSLSASVGDRVTITCKASQDVGAAVAWYQQKPGKAPKLLIYWASTRHTGVPSRFSGSGSGTDFTLTISSLQPEDFATYYCQQYINYPLTFGGGTKVEIKRTVAAPSVFIFPPSDEQLKSGTASVVCLLNNFYPREAKVQWKVDNALQSGNSQESVTEQDSKDSTYSLSSTLTLSKADYEKHKVYACEVTHQGLSSPVTKSFNRGEC
2 | 92 | 28 | 70 | 30 | 0.494 |  | 9 | 9 | 39.3 |  | 0.229 | OX40SF2IgG1 (antibody, Anti-OX40 antibody, wild-type IgG1; control without FN3 domain) heavy: not shown light: DIQMTQSPSSLSASVGDRVTITCKASQDVGAAVAWYQQKPGKAPKLLIYWASTRHTGVPSRFSGSGSGTDFTLTISSLQPEDFATYYCQQYINYPLTFGGGTKVEIKRTVAAPSVFIFPPSDEQLKSGTASVVCLLNNFYPREAKVQWKVDNALQSGNSQESVTEQDSKDSTYSLSSTLTLSKADYEKHKVYACEVTHQGLSSPVTKSFNRGEC
3 | 97 | 28 | 70 | 30 |  | > 10 | 2 | 1 | > 1000 | 13900 | 0.166 | OX40SF2IgG2sigma (antibody, Anti-OX40 antibody, IgG2 sigma isotype (effector silent Fc: V234A, G237A, P238S, H268A, V309L, A330S, P331S against wild type IgG2); control without FN3 domain; also called parental antibody; parental OX40 antibody) heavy: QVQLVQSGAEVKKPGSSVKVSCKASGYTFKDYTMHWVRQAPGQGLEWIGGIYPNNGGSTYNQNFKDRVTLTADKSTSTAYMELSSLRSEDTAVYYCARMGYHGPHLDFDVWGQGTTVTVSSASTKGPSVFPLAPCSRSTSESTAALGCLVKDYFPEPVTVSWNSGALTSGVHTFPAVLQSSGLYSLSSVVTVPSSNFGTQTYTCNVDHKPSNTKVDKTVERKCCVECPPCPAPPAAASSVFLFPPKPKDTLMISRTPEVTCVVVDVSAEDPEVQFNWYVDGVEVHNAKTKPREEQFNSTFRVVSVLTVLHQDWLNGKEYKCKVSNKGLPSSIEKTISKTKGQPREPQVYTLPPSREEMTKNQVSLTCLVKGFYPSDIAVEWESNGQPENNYKTTPPMLDSDGSFFLYSKLTVDKSRWQQGNVFSCSVMHEALHNHYTQKSLSLSPGK light: DIQMTQSPSSLSASVGDRVTITCKASQDVGAAVAWYQQKPGKAPKLLIYWASTRHTGVPSRFSGSGSGTDFTLTISSLQPEDFATYYCQQYINYPLTFGGGTKVEIKRTVAAPSVFIFPPSDEQLKSGTASVVCLLNNFYPREAKVQWKVDNALQSGNSQESVTEQDSKDSTYSLSSTLTLSKADYEKHKVYACEVTHQGLSSPVTKSFNRGEC
